Laboratory results as given in article PMC9781295.

Tests used:
[1] = target: GlyT1b L288C, N-terminal FLAG-tagged (human)
[2] = target: GlyT1b L288C, N-terminal FLAG-tagged (human); assay: cross-linking; oxidative cross-linking on intact HEK293 cells with copper phenanthroline (CuP, 1-100 μM) for 15 min at 22 °C in HEPES buffered saline, quenched with 10 mM N-ethylmaleimide; lysates in non-reducing sample buffer, anti-FLAG immunoblot; also with ZnCl2, NMDGCl, Na+, glycine, bitopertin or LY2365109 present, or 100 mM DTT on the lysates

[3H]glycine uptake after CuP treatment (1 to 100 μM), transport activity remaining at the highest CuP concentration, % of control without CuP [1]: 54 % of control
maximally increased % dimer fraction (CuP 1 to 100 μM) [2]: 55.9%
stoichiometry N [2]: 2
Substance: GlyT1b L288C, N-terminal FLAG-tagged (natural protein)
